The source of these data is paper PMC3927496.

One data set has as its target VEGF165 (Homo sapiens, UniProt P15692-4 27-191). Put plainly: SPR.
The next data set addresses thrombin (UniProt P00734;P00734 328-363;364-622). Briefly: SPR. In general terms: SPR reads the build-up and loss of mass on a sensor chip optically.

B1: VEa5 (ssDNA)
DNA: ATACCAGTCTATTCAATTGGGCCCGTCCGTATGGTGGGTGTGCTGGCCAGATAGTATGTGCAATCA
By Kd is commonly meant the constant that tells how readily two partners part at equilibrium. Regarding B1, in the data set with VEGF165, the Kd worked out at 116 nM.

B2: Linker 5 (15-mer-T5-29-mer) (structured_DNA)
DNA: GGTTGGTGTGGTTGGTTTTTAGTCCGTGGTAGGGCAGGTTGGGGTGACT
Consider B2, for which, in the data set with thrombin, binding was put at a Kd of 0.06 nM.

B3: Linker 10 (15-mer-T10-29-mer) (structured_DNA)
DNA: GGTTGGTGTGGTTGGTTTTTTTTTTAGTCCGTGGTAGGGCAGGTTGGGGTGACT
Regarding B3, binding in the data set with thrombin was characterised by a dissociation constant (Kd) of 0.74 nM.

B4: Linker 0 (15-mer-29-mer) (structured_DNA)
DNA: GGTTGGTGTGGTTGGAGTCCGTGGTAGGGCAGGTTGGGGTGACT
Take B4: the Kd with thrombin was 0.14 nM.
